From publication PMC12888920, “MMP-9 regulates disulphide isomerase activity of TGM2 to enhance fusion glycoprotein-mediated syncytium formation of respiratory syncytial virus” (Protein & Cell, 2025)

Legend:
[1] = target: purified human MMP-9 (human) (UniProt P14780); assay: BLI; ForteBio Octet; who was immobilised and buffer not told in the text shown; three biological replicates
[2] = target: DS-Cav1 (RSV F prefusion conformation) (respiratory syncytial virus (strain not stated)) (UniProt P03420); assay: as above

Chain of purified human TGM2 (transglutaminase 2) (P21980 whole entry): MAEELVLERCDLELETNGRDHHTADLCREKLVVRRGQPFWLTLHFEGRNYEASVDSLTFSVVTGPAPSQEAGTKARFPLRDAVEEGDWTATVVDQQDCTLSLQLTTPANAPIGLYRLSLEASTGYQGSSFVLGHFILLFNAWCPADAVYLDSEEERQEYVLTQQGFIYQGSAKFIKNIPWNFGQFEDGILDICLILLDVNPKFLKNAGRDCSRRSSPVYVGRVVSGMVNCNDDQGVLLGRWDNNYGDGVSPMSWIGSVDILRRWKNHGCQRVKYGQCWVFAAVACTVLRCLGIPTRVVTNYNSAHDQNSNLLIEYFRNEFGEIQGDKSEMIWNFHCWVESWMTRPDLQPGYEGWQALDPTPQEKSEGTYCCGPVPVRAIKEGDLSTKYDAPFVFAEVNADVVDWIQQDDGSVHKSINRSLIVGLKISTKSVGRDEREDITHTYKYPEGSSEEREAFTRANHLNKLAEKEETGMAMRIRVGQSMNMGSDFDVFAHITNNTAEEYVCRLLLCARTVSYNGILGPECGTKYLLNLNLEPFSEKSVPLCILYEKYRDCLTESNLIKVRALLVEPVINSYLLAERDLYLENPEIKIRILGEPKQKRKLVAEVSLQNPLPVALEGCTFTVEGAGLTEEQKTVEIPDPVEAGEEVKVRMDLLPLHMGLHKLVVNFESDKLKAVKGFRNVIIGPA
Chain of purified human MMP-9 (human) (P14780 20-707): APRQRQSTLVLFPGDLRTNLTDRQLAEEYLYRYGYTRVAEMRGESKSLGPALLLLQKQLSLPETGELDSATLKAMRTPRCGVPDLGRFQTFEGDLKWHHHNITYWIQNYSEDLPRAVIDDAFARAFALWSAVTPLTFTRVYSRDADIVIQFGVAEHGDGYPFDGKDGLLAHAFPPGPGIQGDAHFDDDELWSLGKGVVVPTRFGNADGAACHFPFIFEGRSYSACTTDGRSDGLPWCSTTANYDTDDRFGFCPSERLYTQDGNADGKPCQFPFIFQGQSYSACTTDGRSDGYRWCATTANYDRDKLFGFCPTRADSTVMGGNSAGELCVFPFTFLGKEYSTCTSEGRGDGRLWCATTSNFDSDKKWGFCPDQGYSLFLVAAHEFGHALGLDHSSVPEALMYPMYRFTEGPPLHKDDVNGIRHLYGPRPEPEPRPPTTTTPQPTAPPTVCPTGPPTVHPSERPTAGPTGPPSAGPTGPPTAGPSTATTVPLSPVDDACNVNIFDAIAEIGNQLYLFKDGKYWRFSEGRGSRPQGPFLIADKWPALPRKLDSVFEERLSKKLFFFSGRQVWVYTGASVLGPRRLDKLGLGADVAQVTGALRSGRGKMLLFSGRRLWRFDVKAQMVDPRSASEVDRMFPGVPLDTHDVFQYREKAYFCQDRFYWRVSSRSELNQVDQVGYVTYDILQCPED

Row | Substance | Kd [1] | Kd [2]
1 | DS-Cav1 (RSV F prefusion conformation) (from UniProt P03420 26-574) (natural protein) | 0.146 µM | –
2 | purified human TGM2 (transglutaminase 2) (from UniProt P21980 1-687) (enzyme) | – | 6.31 µM
